From patent publication US20150307867

Key:
[1] = molecular target: TAL1 (Homo sapiens) (UniProt P17542); conditions: ChIP-pyrosequencing, heterozygous primary human erythroblasts; input alleles balanced; about 60:40 G:T
[2] = molecular target: GATA1 (Homo sapiens) (UniProt P15976); conditions: ChIP-pyrosequencing, heterozygous primary human erythroblasts; input alleles balanced; about 60:40 G:T
Chain of GATA1 (Homo sapiens) (P15976 whole entry): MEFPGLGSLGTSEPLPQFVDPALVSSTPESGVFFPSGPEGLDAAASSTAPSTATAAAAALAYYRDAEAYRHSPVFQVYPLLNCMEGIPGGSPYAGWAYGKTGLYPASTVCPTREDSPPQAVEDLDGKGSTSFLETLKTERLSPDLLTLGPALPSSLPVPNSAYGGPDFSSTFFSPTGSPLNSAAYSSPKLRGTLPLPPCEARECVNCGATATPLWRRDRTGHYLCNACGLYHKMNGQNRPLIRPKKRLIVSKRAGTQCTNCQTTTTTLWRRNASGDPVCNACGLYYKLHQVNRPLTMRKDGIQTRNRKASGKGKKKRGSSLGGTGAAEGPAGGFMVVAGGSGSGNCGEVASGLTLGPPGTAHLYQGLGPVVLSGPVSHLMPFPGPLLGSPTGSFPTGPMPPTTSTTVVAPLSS

Chain of TAL1 (Homo sapiens) (P17542 whole entry): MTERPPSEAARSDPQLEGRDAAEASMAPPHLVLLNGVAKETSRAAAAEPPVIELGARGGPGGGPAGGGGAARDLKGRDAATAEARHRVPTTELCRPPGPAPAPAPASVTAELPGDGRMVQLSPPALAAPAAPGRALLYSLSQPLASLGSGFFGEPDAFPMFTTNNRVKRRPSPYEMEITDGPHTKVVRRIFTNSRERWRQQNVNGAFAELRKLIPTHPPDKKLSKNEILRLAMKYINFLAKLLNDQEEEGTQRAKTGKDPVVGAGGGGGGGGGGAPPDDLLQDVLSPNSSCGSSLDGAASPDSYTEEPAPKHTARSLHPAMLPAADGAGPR

Substance | binding signal (% of alleles in ChIP) [1] | binding signal (% of alleles in ChIP) [2]
BCL11A DHS +62 rs1427407 T-allele | 40 | 40
CTGNNNNNNNNNGATA (double strand) [BCL11A DHS +62 rs1427407 G-allele (half-E-box/GATA motif)] | 60 | 60
